Laboratory results: EP4578877A1 (Nanjing Leads Biolabs Co., Ltd., dated 2025)
Residue numbers refer to the chain shown, from its start. Names and notes keep the numbering of the source.

T1: human FAP protein expressed on 293T cells (293T-human FAP) (human, UniProt Q12884 1-760)
T1 sequence: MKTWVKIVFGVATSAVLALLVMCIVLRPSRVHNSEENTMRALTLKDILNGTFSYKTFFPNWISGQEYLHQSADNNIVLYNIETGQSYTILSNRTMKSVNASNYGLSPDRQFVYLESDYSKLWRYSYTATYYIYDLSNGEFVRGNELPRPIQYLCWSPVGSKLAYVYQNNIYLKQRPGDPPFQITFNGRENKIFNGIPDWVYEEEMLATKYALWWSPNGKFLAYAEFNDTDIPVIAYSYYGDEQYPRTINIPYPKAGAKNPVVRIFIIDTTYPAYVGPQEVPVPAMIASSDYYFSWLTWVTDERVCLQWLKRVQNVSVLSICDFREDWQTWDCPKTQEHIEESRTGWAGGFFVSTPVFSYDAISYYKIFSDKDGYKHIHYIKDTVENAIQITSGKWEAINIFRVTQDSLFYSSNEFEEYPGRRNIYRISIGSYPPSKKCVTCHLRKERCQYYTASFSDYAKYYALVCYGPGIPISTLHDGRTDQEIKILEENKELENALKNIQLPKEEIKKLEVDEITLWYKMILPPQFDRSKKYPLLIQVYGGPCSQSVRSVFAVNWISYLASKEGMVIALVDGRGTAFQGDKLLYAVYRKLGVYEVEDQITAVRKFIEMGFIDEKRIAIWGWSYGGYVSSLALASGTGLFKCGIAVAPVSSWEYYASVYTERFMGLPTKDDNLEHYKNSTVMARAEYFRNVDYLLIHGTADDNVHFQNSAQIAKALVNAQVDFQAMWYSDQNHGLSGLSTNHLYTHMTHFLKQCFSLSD

T2: cynomolgus FAP protein expressed on 293T cells (293T-cynomolgus FAP) (cynomolgus, UniProt Q12884 1-760 (human entry))
T2 sequence: T1 sequence with S29P, V261F, E417D

T3: recombinant human FAP protein (Sino Biological, Cat# 10464-H07H) (human, UniProt Q12884 26-760)
T3 construct: Bought protein
T3 sequence: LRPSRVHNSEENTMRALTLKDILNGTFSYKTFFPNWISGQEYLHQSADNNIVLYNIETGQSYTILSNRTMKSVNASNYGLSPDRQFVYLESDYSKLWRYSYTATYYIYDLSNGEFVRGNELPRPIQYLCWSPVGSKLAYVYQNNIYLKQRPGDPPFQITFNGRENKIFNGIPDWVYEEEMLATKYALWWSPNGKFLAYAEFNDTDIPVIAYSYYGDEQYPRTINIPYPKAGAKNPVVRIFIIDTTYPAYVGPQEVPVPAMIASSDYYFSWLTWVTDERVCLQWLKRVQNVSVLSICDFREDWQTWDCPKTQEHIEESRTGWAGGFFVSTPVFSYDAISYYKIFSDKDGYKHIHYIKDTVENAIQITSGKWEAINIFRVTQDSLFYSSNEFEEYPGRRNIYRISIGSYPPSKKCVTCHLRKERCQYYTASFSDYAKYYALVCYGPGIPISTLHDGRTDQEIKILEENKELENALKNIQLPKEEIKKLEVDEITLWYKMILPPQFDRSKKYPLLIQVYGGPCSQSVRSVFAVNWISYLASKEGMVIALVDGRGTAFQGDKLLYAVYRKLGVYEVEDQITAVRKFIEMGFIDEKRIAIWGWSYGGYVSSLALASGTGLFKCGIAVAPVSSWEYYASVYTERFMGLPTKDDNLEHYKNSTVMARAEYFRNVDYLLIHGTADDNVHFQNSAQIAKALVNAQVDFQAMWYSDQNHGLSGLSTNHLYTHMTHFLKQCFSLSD

B1: humanized anti-FAP antibody huF19-LG (antibody, human IgG1, kappa, V domains shown)
VH: QVQLVQSGAEVKKPGASVKVSCKASGYTFTEYTIHWVRQATGQGLEWIGGINPNNGIPNYNQKFKGRATMTVGTSISTAYMELSSLRSEDTAVYFCARRRIAYGYDEGHAMDYWGQGTLVTVSS
VL: DIQMTQSPSSLSASVGDRVTITCKSSQSLLYSRNQKNYLAWFQQKPGKAPKLLIFWASTRESGVPSRFTGSGFGTDFTLTISSLQPEDFATYYCQQYFSYPLTFGQGTKLEIKR
notes: Full-length human IgG1/kappa; expressed in ExpiCHO-S
B2: mutant humanized FAP antibody huF19-LG-NGR (antibody, human IgG1, kappa, V domains shown)
VH: B1 VH with G56R
VL: B1 VL
notes: huF19-LG with G56R (Kabat) in HCDR2; also called optimized FAP antibody
B3: sibrotuzumab (humanized reference anti-FAP antibody) (antibody, human IgG1, kappa, V domains shown)
VH: B1 VH with A24T, G26R, T41P, G44R, A68V, M70I, G73D, I76A, F95Y
VL: DIVMTQSPDSLAVSLGERATINCKSSQSLLYSRNQKNYLAWYQQKPGQPPKLLIFWASTRESGVPDRFSGSGFGTDFTLTISSLQAEDVAVYYCQQYFSYPLTFGQGTKVEIKR
notes: Full-length human IgG1/kappa

Key:
[1] = molecular target: recombinant human FAP protein (Sino Biological, Cat# 10464-H07H) (human) (UniProt Q12884); assay: ELISA on immobilized human FAP; antibody stored at 40 °C for 2 weeks, relative to 0 weeks
[2] = molecular target: recombinant human FAP protein (Sino Biological, Cat# 10464-H07H) (human) (UniProt Q12884); assay: ELISA on immobilized human FAP; antibody stored at 40 °C for 0 weeks
[3] = molecular target: T1, human FAP protein expressed on 293T …; assay: flow cytometry on 293T-human FAP cells
[4] = molecular target: T2, cynomolgus FAP protein expressed on …; assay: flow cytometry on 293T-cynomolgus FAP cells
[5] = molecular target: recombinant human FAP protein (Sino Biological, Cat# 10464-H07H) (human) (UniProt Q12884); assay: ELISA on immobilized human FAP; antibody stored at 40 °C for 4 weeks, relative to 0 weeks
[6] = molecular target: T3, recombinant human FAP protein (Sino …); assay: ELISA, human FAP protein immobilized on plate

| Binder | ELISA Relative activity [1] | ELISA Relative activity [2] | binding result [3] | binding result [4] | ELISA Relative activity [5] | binding result [6] |
| --- | --- | --- | --- | --- | --- | --- |
| B1 | 93.8% | 100% | binds | binds | 89.9% | – |
| B2 | – | – | binds | binds | – | – |
| B3 | – | – | binds | binds | – | binds |
